# ± gives the standard deviation of the averaged measurements.
# Tested on: ATP
# Test: switch fluorescence ratio, 500 uM ATP over buffer (Cy3 cluster intensity, sum of 5 cycles each) (fold (ratio)); higher = stronger signal-on switching upon ATP binding; sequences stand for … in TCGTCGGCAGCGTCAGATGTGTATAAGAGACAGTTTTTTTTTTTTTTTTTTTTTTTTT…TC
# Conditions: aptamer strand: ATP DNA aptamer (quencher-CACCTGGGGGAGTATTGCGGAGGAAGG + anchor), 100 nM annealed; ATP concentration: 500 uM
# How it was run: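 Per cluster, summed Cy3 intensity from the target cycles was divided by that from the buffer cycles to give the fluorescence ratio, then averaged per switch-domain sequence. Clusters outside 100-1000 RFU were excluded. The Cy3-labelled switching-strand clusters, on a modified Illumina MiSeq flow-cell, were annealed to 100 nM quencher-labelled ATP aptamer and imaged in selection buffer, then after 15 min with 500 uM ATP at 22 °C, for five cycles with NaOH stripping and re-annealing between them.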
# 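Note: ATP exposure 15 min at 22 °C before imaging.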
row,Sequence,switch fluorescence ratio
1,TAGGAGGGGA,1.01 ± 0.029
2,TAGGAGTAAG,1.01 ± 0.03
3,TAGGATAGAC,1 ± 0.017
4,TAGGATAGGG,0.9972 ± 0.0021
5,TAGGATATTT,1 ± 0.02
6,TAGGATGTA,0.9643 ± 0.0014
7,TAGGATTGG,0.971 ± 0.015
8,TAGGATTGTG,0.9991 ± 0.0081
9,TAGGCAATCT,1.25 ± 0.092
10,TAGGCAGCGG,0.991 ± 0.023
11,TAGGCCAGTA,1.024 ± 0.0091
12,TAGGCCCCTG,0.985 ± 0.041
13,TAGGCCTAAT,0.9715 ± 0.003
14,TAGGCGGCGA,1 ± 0.022
15,TAGGCGGGGA,1.07 ± 0.059
16,TAGGCGTCTG,1 ± 0.012
17,TAGGCTGAAA,0.9906 ± 0.0024
18,TAGGCTGTTA,0.995 ± 0.036
19,TAGGCTTATG,0.9786 ± 0.0037
20,TAGGCTTTTG,1.03 ± 0.056
21,TAGGGAAAAT,0.9833 ± 0.0029
22,TAGGGAAACT,1.21 ± 0.26
23,TAGGGAACGT,1.04 ± 0.04
24,TAGGGAAGAG,0.996 ± 0.041
25,TAGGGAATGA,1 ± 0.016

row,Sequence,switch fluorescence ratio
1,TAGGGAATTA,1.01 ± 0.012
2,TAGGGACGCA,1.16 ± 0.018
3,TAGGGACTCT,0.995 ± 0.014
4,TAGGGAGATG,0.996 ± 0.056
5,TAGGGAGGGT,1.11 ± 0.2
6,TAGGGATTGG,1.01 ± 0.039
7,TAGGGCGCCA,0.995 ± 0.057
8,TAGGGGAAAA,1.02 ± 0.019
9,TAGGGGAATA,1.01 ± 0.044
10,TAGGGGAGAA,1.01 ± 0.014
11,TAGGGGCTTT,1.04 ± 0.062
12,TAGGGGGCCA,1.014 ± 0.004
13,TAGGGGGGAT,0.992 ± 0.035
14,TAGGGGGGT,0.9765 ± 0.0032
15,TAGGGGGTCA,1 ± 0.022
16,TAGGGGGTT,1.01 ± 0.026
17,TAGGGGTCCA,0.987 ± 0.018
18,TAGGGGTCTG,1.032 ± 0.0059
19,TAGGGGTGCC,0.98 ± 0.034
20,TAGGGGTGCG,1 ± 0.038
21,TAGGGGTGGT,0.984 ± 0.032
22,TAGGGTATGG,0.9792 ± 0.0083
23,TAGGGTGGGG,0.99 ± 0.072
24,TAGGGTTCGC,1.06 ± 0.082
25,TAGGGTTTAA,1.01 ± 0.021

row,Sequence,switch fluorescence ratio
1,TAGGGTTTGG,0.992 ± 0.014
2,TAGGTAAATC,1.01 ± 0.024
3,TAGGTAAGAT,0.993 ± 0.015
4,TAGGTAGTTG,0.952 ± 0.051
5,TAGGTATTCA,0.9988 ± 0.0046
6,TAGGTCCAAT,1.01 ± 0.015
7,TAGGTCCGTT,0.988 ± 0.031
8,TAGGTCTGTG,0.987 ± 0.014
9,TAGGTGAGGG,1.11 ± 0.16
10,TAGGTGGAAA,0.992 ± 0.042
11,TAGGTGGGGC,0.996 ± 0.03
12,TAGGTGGTTG,1 ± 0.03
13,TAGGTTATTG,0.995 ± 0.024
14,TAGGTTCGAC,0.972 ± 0.031
15,TAGGTTGAAC,0.974 ± 0.05
16,TAGGTTGATG,0.981 ± 0.035
17,TAGGTTGTGG,0.994 ± 0.016
18,TAGGTTTGCA,1.02 ± 0.039
19,TAGTAAGTCA,0.976 ± 0.023
20,TAGTAATGGT,1.032 ± 0.0084
21,TAGTACGGAT,1.01 ± 0.007
22,TAGTACTAGA,1.03 ± 0.02
23,TAGTACTATC,0.993 ± 0.021
24,TAGTAGACTC,1.46 ± 0.75
25,TAGTAGGGGG,0.9691 ± 0.0061

row,Sequence,switch fluorescence ratio
1,TAGTAGTGTG,0.9625 ± 0.001
2,TAGTATAG,0.9745 ± 0.0045
3,TAGTATTGTA,1 ± 0.039
4,TAGTCGGAGA,1.01 ± 0.019
5,TAGTCGTCGT,1.02 ± 0.0021
6,TAGTCTTGGG,1.001 ± 0.0026
7,TAGTGGGAGA,1.03 ± 0.029
8,TAGTGGGCGG,1.07 ± 0.046
9,TAGTGGGGGT,1.01 ± 0.022
10,TAGTGTAGGA,1 ± 0.034
11,TAGTGTCAGG,0.988 ± 0.038
12,TAGTGTTGGT,0.975 ± 0.016
13,TAGTTAGGCA,0.9819 ± 0.0053
14,TAGTTAGTGT,0.981 ± 0.013
15,TAGTTATTTA,0.99 ± 0.033
16,TAGTTATTTT,1.01 ± 0.021
17,TAGTTCGGTG,0.988 ± 0.042
18,TAGTTGAGCT,0.9997 ± 0.0061
19,TAGTTGCATT,0.994 ± 0.003
20,TAGTTGGGGT,1 ± 0.03
21,TAGTTGGTCT,0.974 ± 0.028
22,TAGTTGTTTT,1 ± 0.04
23,TAGTTTAGGT,0.9964 ± 0.0051
24,TAGTTTTAAA,1.02 ± 0.044
25,TAGTTTTATA,1.016 ± 0.009

row,Sequence,switch fluorescence ratio
1,TAGTTTTGAT,0.963 ± 0.029
2,TAGTTTTTTG,0.993 ± 0.053
3,TATAAAAAGC,1 ± 0.013
4,TATAAAAGTC,0.992 ± 0.023
5,TATAAAATTC,1.24 ± 0.43
6,TATAAATGTT,0.9936 ± 0.0065
7,TATAAATTTT,0.992 ± 0.036
8,TATAACGGAT,1.01 ± 0.025
9,TATAACGTCC,1.11 ± 0.093
10,TATAAGAAGC,0.993 ± 0.021
11,TATAAGACTA,1.02 ± 0.021
12,TATAAGATGT,0.983 ± 0.025
13,TATAAGCGGA,0.993 ± 0.028
14,TATAAGGAGT,1.01 ± 0.044
15,TATAAGGATC,0.982 ± 0.057
16,TATAAGGCTA,1.02 ± 0.028
17,TATAAGGGGG,0.982 ± 0.021
18,TATAAGGTGT,1.23 ± 0.11
19,TATAAGTTCC,1.07 ± 0.075
20,TATAAGTTGT,1 ± 0.011
21,TATAATAAGG,0.9996 ± 0.0098
22,TATAATACAA,1.024 ± 0.0097
23,TATAATCGGT,0.975 ± 0.014
24,TATAATTAGG,0.98 ± 0.027
25,TATAATTTAC,1.06 ± 0.017

row,Sequence,switch fluorescence ratio
1,TATACACGGA,1.08 ± 0.015
2,TATACATGCG,1.04 ± 0.025
3,TATACGACAT,1.16 ± 0.2
4,TATACGATTG,0.985 ± 0.013
5,TATACGGCCG,1 ± 0.0059
6,TATACGGGGC,1.01 ± 0.027
7,TATACGTGGG,1.03 ± 0.046
8,TATACGTTTT,1.12 ± 0.14
9,TATACTGCAC,1.54 ± 0.032
10,TATACTGCGC,1.065 ± 0.0087
11,TATAGAAATA,0.998 ± 0.017
12,TATAGAAGGG,1 ± 0.053
13,TATAGCAAGT,1.07 ± 0.034
14,TATAGCTTCG,1 ± 0.043
15,TATAGCTTGG,1 ± 0.029
16,TATAGGAGGT,0.987 ± 0.062
17,TATAGGCCCC,0.983 ± 0.015
18,TATAGGGGCT,0.9805 ± 0.0098
19,TATAGTAGTG,0.973 ± 0.014
20,TATAGTCTCG,1.01 ± 0.019
21,TATAGTCTTC,0.959 ± 0.027
22,TATAGTGCGT,0.978 ± 0.03
23,TATAGTGGGA,1 ± 0.032
24,TATATCTGAC,1.16 ± 0.074
25,TATATGATG,1.0194 ± 0.00035

row,Sequence,switch fluorescence ratio
1,TATATGATGC,0.984 ± 0.029
2,TATATGATGG,0.982 ± 0.024
3,TATATGCACT,1.07 ± 0.024
4,TATATGGCGT,0.989 ± 0.019
5,TATATGGGTT,0.9849 ± 0.0062
6,TATATGGTGT,1.02 ± 0.024
7,TATATGTGGC,1.07 ± 0.068
8,TATATTAGAG,1.01 ± 0.0023
9,TATATTAGCT,1.01 ± 0.026
10,TATATTGCTA,1.01 ± 0.026
11,TATATTTCGT,1.03 ± 0.07
12,TATATTTTAG,1.03 ± 0.021
13,TATATTTTGG,1.02 ± 0.074
14,TATATTTTTT,1.02 ± 0.068
15,TATCAAATTG,1.02 ± 0.025
16,TATCAGGGGG,0.988 ± 0.026
17,TATCAGTGGT,0.997 ± 0.026
18,TATCATAGCC,1.02 ± 0.027
19,TATCATCCGG,0.985 ± 0.032
20,TATCATGTTG,0.9987 ± 0.0047
21,TATCATTTAA,1.005 ± 0.009
22,TATCCAACAT,1.036 ± 0.00037
23,TATCCACCGT,1.077 ± 0.0031
24,TATCCCTGCT,1 ± 0.027
25,TATCGAAGTG,0.993 ± 0.019

row,Sequence,switch fluorescence ratio
1,TATCGACGGC,1.03 ± 0.05
2,TATCGCGAAT,1.01 ± 0.021
3,TATCGGCTGG,1.01 ± 0.025
4,TATCGGGATT,1.02 ± 0.026
5,TATCGGGGCA,0.9622 ± 0.007
6,TATCGGTCTA,1.006 ± 0.005
7,TATCGGTTAT,0.984 ± 0.013
8,TATCGTAAAT,1 ± 0.029
9,TATCGTATTC,0.97 ± 0.037
10,TATCGTGGGA,1.01 ± 0.019
11,TATCGTTTAA,0.987 ± 0.032
12,TATCTAAATC,0.9967 ± 0.0063
13,TATCTAATGC,1 ± 0.085
14,TATCTACAAT,1.01 ± 0.02
15,TATCTACGGG,1.036 ± 0.0013
16,TATCTTAGGC,1.01 ± 0.027
17,TATCTTTAAC,1.03 ± 0.024
18,TATCTTTAGT,0.989 ± 0.015
19,TATCTTTCTT,1.06 ± 0.019
20,TATCTTTTTC,1.04 ± 0.084
21,TATGAAAGGG,1.13 ± 0.16
22,TATGAAGGGA,0.99 ± 0.021
23,TATGAATCAG,0.998 ± 0.019
24,TATGAGGTTC,0.983 ± 0.1
25,TATGATCTTT,1.029 ± 0.0052

# Source: the supplement of paper PMC10126150
